The target of one assay is karyopherinβ1 (human) (UniProt Q14974). The experiment in a line: ITC.
Assay [1] deals with cNup153 (cysteine-tagged FG domain of human Nup153) (human) (UniProt P49790). In words: SPR. For orientation: In SPR one partner is held on a chip, and binding of the other changes the refractive index at the surface.
For assay [2], the target named is cNup214 (cysteine-tagged FG domain of human Nup214) (human) (UniProt P35658). The experiment in a line: SPR.
For assay [3], the target named is cNup98 (cysteine-tagged FG domain of human Nup98) (human) (UniProt P52948). The experiment in a line: SPR.
cNup98 (cysteine-tagged FG domain of human Nup98) (human), sequence (P52948 whole entry, the tested form may be a part): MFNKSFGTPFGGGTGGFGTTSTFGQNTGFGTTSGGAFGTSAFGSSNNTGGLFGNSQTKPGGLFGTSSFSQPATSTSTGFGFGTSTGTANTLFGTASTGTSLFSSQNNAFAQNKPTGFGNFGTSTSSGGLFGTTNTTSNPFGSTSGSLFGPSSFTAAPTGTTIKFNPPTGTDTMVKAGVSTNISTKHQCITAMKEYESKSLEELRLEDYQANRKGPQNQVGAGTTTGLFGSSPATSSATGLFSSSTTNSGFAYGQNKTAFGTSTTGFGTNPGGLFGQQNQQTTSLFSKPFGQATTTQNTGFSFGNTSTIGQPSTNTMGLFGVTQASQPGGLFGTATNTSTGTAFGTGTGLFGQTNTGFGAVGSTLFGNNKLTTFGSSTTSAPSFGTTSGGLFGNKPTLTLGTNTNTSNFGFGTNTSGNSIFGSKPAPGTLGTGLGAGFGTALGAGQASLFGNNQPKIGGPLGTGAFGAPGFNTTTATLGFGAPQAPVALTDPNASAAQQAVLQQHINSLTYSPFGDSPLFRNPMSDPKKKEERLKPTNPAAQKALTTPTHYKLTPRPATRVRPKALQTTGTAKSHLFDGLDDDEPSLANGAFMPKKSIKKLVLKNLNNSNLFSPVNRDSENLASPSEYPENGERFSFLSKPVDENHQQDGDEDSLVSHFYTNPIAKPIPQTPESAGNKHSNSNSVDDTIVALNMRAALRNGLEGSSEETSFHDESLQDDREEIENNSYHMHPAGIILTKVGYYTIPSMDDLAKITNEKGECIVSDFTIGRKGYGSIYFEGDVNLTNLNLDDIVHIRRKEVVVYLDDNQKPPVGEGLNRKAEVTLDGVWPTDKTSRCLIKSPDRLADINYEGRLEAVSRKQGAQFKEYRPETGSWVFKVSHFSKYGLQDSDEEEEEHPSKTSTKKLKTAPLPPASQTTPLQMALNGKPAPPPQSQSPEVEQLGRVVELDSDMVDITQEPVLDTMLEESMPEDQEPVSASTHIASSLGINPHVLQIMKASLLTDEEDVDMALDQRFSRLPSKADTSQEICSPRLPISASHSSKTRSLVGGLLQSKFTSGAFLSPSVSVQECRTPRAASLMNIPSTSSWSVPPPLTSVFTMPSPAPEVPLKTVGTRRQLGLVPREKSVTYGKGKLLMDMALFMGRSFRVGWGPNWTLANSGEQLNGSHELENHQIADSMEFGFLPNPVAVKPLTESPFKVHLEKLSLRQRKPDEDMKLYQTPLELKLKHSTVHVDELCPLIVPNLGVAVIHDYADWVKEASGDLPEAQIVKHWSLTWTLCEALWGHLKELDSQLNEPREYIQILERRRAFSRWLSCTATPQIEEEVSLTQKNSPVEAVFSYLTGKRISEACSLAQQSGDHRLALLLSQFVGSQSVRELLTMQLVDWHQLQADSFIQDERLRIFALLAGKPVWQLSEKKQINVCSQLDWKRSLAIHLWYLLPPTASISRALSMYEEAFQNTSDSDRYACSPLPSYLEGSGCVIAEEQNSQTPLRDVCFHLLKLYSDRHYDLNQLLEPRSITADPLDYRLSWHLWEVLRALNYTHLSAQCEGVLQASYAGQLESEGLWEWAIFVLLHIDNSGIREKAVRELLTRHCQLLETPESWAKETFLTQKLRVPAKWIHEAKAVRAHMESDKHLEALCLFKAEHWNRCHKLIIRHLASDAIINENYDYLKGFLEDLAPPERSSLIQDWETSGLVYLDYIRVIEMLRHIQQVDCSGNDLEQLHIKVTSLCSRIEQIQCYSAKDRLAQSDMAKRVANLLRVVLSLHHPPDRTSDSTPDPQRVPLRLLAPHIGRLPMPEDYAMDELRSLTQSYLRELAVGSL
Assay [4] has as its target cNup62 (cysteine-tagged FG domain of human Nup62) (human) (UniProt P37198). In words: SPR.

Our source for the Kd and fold higher affinity than Kapβ1 and RanGTP·Kapβ1 (strong binding phase) values is PMC5674887.

In general, Kd refers to the free concentration of one partner at which half of the binding sites on the other are occupied at equilibrium, for simple one-to-one binding. Read a high Kd as lower affinity.

cNup153 (cysteine-tagged FG domain of human Nup153) (human), sequence (P49790 whole entry, the tested form may be a part): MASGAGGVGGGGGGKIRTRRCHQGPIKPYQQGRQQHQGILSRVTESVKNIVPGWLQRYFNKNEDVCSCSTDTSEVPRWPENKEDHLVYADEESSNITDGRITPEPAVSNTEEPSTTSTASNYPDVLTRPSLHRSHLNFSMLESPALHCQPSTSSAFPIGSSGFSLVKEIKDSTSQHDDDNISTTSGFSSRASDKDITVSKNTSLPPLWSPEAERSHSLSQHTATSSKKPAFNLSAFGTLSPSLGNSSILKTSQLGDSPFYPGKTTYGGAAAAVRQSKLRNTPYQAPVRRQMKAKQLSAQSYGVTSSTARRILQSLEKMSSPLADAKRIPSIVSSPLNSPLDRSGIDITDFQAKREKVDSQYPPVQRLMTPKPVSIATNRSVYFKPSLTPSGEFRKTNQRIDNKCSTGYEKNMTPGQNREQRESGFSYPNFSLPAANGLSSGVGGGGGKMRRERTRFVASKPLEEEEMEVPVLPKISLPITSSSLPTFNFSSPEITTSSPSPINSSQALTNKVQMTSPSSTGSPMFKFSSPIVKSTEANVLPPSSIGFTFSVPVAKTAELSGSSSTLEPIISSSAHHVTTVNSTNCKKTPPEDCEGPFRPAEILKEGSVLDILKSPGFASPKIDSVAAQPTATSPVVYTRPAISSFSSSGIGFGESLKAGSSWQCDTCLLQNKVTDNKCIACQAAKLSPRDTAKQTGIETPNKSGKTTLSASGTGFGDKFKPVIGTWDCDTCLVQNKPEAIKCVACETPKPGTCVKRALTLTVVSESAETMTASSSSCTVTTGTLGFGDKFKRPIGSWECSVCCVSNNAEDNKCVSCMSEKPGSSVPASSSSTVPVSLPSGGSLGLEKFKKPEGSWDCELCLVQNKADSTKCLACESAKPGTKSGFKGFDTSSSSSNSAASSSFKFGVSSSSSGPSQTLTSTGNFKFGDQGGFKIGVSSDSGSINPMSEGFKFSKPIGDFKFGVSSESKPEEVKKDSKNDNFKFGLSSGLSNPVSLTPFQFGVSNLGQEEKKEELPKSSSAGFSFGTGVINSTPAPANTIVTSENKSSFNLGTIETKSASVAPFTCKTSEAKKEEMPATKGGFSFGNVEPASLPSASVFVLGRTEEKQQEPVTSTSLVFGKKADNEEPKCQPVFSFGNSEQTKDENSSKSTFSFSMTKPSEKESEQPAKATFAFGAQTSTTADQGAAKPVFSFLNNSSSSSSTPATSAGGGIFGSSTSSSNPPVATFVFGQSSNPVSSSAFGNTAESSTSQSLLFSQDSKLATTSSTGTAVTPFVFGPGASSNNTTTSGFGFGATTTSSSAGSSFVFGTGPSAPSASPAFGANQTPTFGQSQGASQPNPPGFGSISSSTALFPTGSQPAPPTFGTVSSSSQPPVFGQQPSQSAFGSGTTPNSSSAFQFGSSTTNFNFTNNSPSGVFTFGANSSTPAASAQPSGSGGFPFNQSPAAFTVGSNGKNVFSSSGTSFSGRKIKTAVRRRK
karyopherinβ1 (human), sequence (Q14974 whole entry, the tested form may be a part): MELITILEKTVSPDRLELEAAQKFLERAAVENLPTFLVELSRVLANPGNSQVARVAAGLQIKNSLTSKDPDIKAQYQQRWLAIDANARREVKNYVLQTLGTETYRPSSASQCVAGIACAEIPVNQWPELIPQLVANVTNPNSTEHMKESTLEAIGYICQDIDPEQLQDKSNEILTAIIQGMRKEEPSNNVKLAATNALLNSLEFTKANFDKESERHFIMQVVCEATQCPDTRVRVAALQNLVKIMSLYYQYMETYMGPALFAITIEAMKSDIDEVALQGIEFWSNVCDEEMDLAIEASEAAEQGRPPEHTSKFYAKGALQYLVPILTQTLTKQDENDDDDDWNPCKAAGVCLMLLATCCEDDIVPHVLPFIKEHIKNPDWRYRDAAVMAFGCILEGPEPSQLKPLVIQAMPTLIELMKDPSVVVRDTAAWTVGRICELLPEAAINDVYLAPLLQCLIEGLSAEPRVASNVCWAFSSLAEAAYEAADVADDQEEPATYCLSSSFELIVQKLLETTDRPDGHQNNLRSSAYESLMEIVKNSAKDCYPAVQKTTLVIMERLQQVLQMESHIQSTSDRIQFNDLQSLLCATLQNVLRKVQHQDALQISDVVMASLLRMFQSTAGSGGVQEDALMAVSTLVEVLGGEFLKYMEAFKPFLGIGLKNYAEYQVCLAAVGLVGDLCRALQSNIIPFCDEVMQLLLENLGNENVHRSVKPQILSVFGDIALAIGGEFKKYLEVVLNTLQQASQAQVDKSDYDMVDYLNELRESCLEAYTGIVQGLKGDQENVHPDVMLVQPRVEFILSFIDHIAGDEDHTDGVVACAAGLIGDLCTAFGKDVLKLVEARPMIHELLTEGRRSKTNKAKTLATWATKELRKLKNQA
cNup62 (cysteine-tagged FG domain of human Nup62) (human), sequence (P37198 whole entry, the tested form may be a part): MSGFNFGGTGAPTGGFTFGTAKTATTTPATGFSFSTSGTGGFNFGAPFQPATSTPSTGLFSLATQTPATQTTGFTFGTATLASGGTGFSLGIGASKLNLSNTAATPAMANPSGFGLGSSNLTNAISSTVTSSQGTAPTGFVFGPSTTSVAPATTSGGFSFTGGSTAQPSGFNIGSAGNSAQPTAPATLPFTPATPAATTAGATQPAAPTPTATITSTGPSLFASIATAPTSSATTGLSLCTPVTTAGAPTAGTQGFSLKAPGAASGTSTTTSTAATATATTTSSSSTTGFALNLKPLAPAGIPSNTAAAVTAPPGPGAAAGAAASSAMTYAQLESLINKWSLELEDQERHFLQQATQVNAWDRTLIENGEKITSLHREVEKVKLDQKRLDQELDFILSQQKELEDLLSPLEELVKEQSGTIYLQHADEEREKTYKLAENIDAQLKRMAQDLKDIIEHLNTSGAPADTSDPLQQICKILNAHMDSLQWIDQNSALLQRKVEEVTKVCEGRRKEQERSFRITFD

As to “RanGTP (from UniProt P62826 1-216) (natural protein)”, in the assay with karyopherinβ1 (human), the Kd came out at 0.035 µM.
“karyopherinα (from UniProt P52292 1-529) (natural protein)”: the values for the dissociation constant Kd (in assay [1]; with karyopherinβ1 (human)) were 1.3 µM and 0.21 µM, respectively.
On to “Kapα·Kapβ1 (from UniProt P52292;Q14974) (complex)”, for which the fold higher affinity than Kapβ1 and RanGTP·Kapβ1 (strong binding phase) in assay [1], in assay [2], in assay [3] and in assay [4] was 10 fold in each case.
